Test results from article PMC3306366, “Oligomeric Status and Nucleotide Binding Properties of the Plastid ATP/ADP Transporter 1: Toward a Molecular Understanding of the Transport Mechanism” (PLoS ONE, 2012).
Like-named read-outs stand apart in the source and are kept apart here.

Experiments:
NTT1ΔC = target: T1, NTT1ΔC (Arabidopsis thaliana, UniProt Q39002); experiment: tryptophan fluorescence variation, two-site fit; format: binding; settings: 20 mM Tris pH 8, 10 mM NaCl, 0.1% LAPAO, 25°C, stronger site of two-site fit
T1 construct: gene AATP1; mature form (first 79 residues removed) with last 41 residues deleted (deletion borders computed from a recalled length of 624); tagged; E. coli; purified in LAPAO; partly aggregated
T1 sequence (Q39002 80-583): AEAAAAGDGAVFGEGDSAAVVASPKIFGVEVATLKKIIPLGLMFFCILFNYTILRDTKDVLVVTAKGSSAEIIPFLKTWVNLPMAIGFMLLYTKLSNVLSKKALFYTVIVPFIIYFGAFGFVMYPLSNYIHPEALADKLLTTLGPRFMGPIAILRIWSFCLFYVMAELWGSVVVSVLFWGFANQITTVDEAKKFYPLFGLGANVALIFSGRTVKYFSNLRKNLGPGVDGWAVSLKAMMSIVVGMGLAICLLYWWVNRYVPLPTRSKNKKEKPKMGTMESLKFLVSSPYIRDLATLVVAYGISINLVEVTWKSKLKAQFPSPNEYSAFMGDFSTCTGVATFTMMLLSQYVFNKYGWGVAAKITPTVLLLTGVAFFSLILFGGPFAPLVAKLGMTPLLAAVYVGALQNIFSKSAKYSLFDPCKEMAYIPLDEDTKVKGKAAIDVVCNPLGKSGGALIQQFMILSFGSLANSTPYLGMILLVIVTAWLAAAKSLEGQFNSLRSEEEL
From the text: tryptophan fluorescence variation, two-site fit on NTT1ΔC

[1] = target: T2, NTT1 (plastid / chloroplast ATP/ADP transporter 1) (Arabidopsis thaliana, UniProt Q39002); experiment: tryptophan fluorescence quenching; format: binding; settings: 20 mM Tris pH 8, 10 mM NaCl, 0.1% LAPAO, 25°C; no Mg2+, no Pi; one-site fit; read-out: Affinity
T2 construct: gene AATP1; mature form lacking first 79 residues (transit peptide), N-terminal His-tag, C-terminal StreptagII; E. coli; purified in LAPAO; monomers and dimers
T2 sequence (Q39002 80-624): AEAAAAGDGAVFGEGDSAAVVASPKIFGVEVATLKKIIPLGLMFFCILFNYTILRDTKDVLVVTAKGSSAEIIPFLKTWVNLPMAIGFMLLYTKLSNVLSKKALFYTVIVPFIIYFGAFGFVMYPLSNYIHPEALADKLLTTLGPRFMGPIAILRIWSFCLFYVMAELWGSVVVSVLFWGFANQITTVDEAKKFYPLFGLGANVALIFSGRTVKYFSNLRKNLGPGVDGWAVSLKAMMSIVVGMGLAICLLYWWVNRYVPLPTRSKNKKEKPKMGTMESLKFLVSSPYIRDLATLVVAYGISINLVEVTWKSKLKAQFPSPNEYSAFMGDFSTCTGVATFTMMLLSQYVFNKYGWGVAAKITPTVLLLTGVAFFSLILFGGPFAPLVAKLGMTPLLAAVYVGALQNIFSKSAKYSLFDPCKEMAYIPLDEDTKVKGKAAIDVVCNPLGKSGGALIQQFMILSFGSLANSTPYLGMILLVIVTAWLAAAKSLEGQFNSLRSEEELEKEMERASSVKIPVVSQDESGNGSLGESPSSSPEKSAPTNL
From the text: tryptophan fluorescence quenching on NTT1 (plastid / chloroplast ATP/ADP transporter 1)

[2] = target: T3, NTT1 (plastid / chloroplast ATP/ADP transporter 1) (Arabidopsis thaliana, UniProt Q39002, E246K); experiment: tryptophan fluorescence variation; format: binding
T3 construct: gene AATP1; mature form lacking first 79 residues (transit peptide), N-terminal His-tag, C-terminal StreptagII; E. coli; purified in LAPAO; monomers and dimers
T3 sequence (Q39002 80-624 E246K): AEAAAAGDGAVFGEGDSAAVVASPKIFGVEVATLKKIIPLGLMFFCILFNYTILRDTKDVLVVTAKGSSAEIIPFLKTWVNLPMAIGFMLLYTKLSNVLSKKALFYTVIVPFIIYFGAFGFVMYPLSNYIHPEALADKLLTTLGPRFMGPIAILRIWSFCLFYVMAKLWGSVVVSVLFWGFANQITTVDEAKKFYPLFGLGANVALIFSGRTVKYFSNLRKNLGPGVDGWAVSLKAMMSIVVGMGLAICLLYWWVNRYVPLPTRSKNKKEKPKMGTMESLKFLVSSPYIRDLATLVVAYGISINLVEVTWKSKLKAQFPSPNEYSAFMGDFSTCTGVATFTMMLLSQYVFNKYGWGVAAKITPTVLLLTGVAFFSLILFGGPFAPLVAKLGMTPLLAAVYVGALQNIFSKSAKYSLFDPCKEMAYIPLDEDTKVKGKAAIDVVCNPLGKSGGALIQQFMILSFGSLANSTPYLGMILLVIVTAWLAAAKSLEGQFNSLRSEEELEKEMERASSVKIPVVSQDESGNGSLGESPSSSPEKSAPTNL
From the text: (§1) tryptophan fluorescence variation on NTT1 (plastid / chloroplast ATP/ADP transporter 1)

[3] = target: T4, NTT1 (plastid / chloroplast ATP/ADP transporter 1) (Arabidopsis thaliana, UniProt Q39002, K528E); experiment: tryptophan fluorescence variation; format: binding; settings: read-out: Affinity for ADP
T4 construct: gene AATP1; mature form lacking first 79 residues (transit peptide), N-terminal His-tag, C-terminal StreptagII; E. coli; purified in LAPAO; monomers and dimers
T4 sequence (Q39002 80-624 K528E): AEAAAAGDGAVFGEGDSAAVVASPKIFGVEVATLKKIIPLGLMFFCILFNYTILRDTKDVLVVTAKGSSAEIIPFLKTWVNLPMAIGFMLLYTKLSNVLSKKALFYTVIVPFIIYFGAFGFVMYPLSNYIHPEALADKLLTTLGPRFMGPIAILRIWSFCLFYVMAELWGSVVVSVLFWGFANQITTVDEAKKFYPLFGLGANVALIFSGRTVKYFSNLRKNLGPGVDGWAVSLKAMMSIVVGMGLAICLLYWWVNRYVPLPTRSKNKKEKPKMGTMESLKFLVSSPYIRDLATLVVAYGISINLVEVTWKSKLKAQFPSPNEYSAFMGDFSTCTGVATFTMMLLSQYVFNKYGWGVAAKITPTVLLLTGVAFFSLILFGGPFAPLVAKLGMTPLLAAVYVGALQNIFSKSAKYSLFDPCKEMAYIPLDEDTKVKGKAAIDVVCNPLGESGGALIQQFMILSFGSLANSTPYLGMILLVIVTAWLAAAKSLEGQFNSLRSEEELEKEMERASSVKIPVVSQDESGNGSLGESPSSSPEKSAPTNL
From the text: as §1

[4] = target: T5, NTT1 (plastid / chloroplast ATP/ADP transporter 1) (Arabidopsis thaliana, UniProt Q39002, K528R); experiment: tryptophan fluorescence variation; format: binding
T5 construct: gene AATP1; mature form lacking first 79 residues (transit peptide), N-terminal His-tag, C-terminal StreptagII; E. coli; purified in LAPAO; monomers and dimers
T5 sequence (Q39002 80-624 K528R): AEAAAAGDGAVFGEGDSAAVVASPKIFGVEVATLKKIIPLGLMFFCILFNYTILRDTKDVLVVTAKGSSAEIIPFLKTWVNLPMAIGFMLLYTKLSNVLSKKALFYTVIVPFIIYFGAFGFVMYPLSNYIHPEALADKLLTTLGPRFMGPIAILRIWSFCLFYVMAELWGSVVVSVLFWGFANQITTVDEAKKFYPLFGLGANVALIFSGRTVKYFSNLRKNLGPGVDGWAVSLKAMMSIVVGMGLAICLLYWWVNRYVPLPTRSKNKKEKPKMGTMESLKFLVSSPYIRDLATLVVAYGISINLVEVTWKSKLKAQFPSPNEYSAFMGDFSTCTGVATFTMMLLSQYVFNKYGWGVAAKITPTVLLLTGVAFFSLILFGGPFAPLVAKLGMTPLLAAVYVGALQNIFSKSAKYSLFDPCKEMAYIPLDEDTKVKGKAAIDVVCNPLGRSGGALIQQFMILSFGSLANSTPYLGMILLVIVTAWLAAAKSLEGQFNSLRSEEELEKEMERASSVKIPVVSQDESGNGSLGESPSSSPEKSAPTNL
From the text: as §1

[5] = target: T6, NTT1 (plastid / chloroplast ATP/ADP transporter 1) (Arabidopsis thaliana, UniProt Q39002, K156R); experiment: tryptophan fluorescence variation; format: binding; settings: read-out: Affinity for ATP
T6 construct: gene AATP1; mature form lacking first 79 residues (transit peptide), N-terminal His-tag, C-terminal StreptagII; E. coli; purified in LAPAO; monomers and dimers
T6 sequence (Q39002 80-624 K156R): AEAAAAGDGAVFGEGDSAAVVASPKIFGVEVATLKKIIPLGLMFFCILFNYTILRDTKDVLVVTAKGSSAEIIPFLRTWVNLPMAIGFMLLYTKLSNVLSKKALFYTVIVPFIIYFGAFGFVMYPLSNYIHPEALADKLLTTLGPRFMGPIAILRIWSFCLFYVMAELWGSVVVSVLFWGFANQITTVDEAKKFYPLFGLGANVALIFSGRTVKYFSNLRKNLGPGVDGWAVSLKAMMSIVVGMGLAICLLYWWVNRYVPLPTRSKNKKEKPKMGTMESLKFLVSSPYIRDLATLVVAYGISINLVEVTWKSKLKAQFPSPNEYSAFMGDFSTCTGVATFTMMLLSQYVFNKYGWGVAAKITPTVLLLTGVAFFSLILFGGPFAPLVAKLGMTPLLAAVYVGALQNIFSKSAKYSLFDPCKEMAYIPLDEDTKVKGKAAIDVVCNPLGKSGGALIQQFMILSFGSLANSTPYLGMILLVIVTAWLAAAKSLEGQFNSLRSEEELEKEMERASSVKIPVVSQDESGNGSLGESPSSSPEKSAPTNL
From the text: as §1

[6] = target: Chloroplast ATP/ADP transporter 1 (NTT1), mature form (Arabidopsis thaliana); experiment: Multiple Angle Laser Light Scattering; purified NTT1 in LAPAO; data not shown
[7] = target: Chloroplast ATP/ADP transporter 1 (NTT1), mature form (Arabidopsis thaliana); experiment: AUC; sedimentation velocity, NTT1 solubilised and purified in FC12; 42,000 rpm, 10°C
[8] = target: Chloroplast ATP/ADP transporter 1 (NTT1), mature form (Arabidopsis thaliana); experiment: AUC; sedimentation velocity, NTT1 solubilised and purified in β-DDM; 42,000 rpm, 10°C
[9] = target: Chloroplast ATP/ADP transporter 1 (NTT1), mature form (Arabidopsis thaliana); experiment: AUC; sedimentation velocity, NTT1 exchanged from detergent into amphipols; 42,000 rpm, 10°C
[10] = target: Chloroplast ATP/ADP transporter 1 (NTT1), mature form (Arabidopsis thaliana); experiment: AUC; sedimentation velocity, purified protein in 20 mM Tris pH 8, 100 mM NaCl, 0.1% LAPAO, 3 mM desthiobiotin; 42,000 rpm, 10°C; c(s) analysis, absorbance and interference
[11] = substrate: Nc1ncnc2c1ncn2[C@@H]1O[C@H](COP(=O)(O)OP(=O)(O)O)[C@@H](O)[C@H]1O; experiment: ATP/ADP exchange by luciferase luminescence, whole E. coli cells; format: cell-based, Arabidopsis thaliana; settings: transport Km; C-terminal Mistic fusion
From the text: ATP/ADP exchange by luciferase luminescence, whole E. coli cells on NTT1mis

[12] = substrate: Nc1ncnc2c1ncn2[C@@H]1O[C@H](COP(=O)(O)OP(=O)(O)OP(=O)(O)O)[C@@H](O)[C@H]1O; experiment: radioactive ATP uptake in whole E. coli cells; format: cell-based, Arabidopsis thaliana; settings: transport Km; C-terminal Mistic fusion
From the text: radioactive ATP uptake in whole E. coli cells on […]

Nc1ncnc2c1ncn2[C@@H]1O[C@H](COP(=O)(O)OP(=O)(O)O)[C@@H](O)[C@H]1O [ADP]
Kd (NTT1ΔC; read-out: Affinity for ADP): 0.6 ± 0.7 µM | Kd [1]: 8.6 ± 1.5 µM | Kd ([2]; read-out: Affinity for ADP): 14 ± 5.1 µM | Kd [3]: 19 ± 24.1 µM | Kd ([4]; read-out: Affinity for ADP): 33.5 ± 22.3 µM

Nc1ncnc2c1ncn2[C@@H]1O[C@H](COP(=O)(O)OP(=O)(O)OP(=O)(O)O)[C@@H](O)[C@H]1O [ATP]
Kd (NTT1ΔC; read-out: Affinity for ATP): 0.7 ± 0.5 µM | Kd [1]: 4.2 ± 0.7 µM | Kd ([2]; read-out: Affinity for ATP): 1.9 ± 1.7 µM | Kd [5]: 91.2 ± 58.8 µM | Kd ([4]; read-out: Affinity for ATP): > 1000 µM

Chloroplast ATP/ADP transporter 1 (NTT1), mature form (natural protein)
stoichiometry N [6]: 4 | dimer (% of the three species) [7]: 35% | tetramer (% of the three species) [7]: 18% | dimer (% of the three species) [8]: 29% | dimer (% of the three species) [9]: 33% | tetramer (% of the three species) [9]: 23% | dimer (% of the three species) [10]: 35% | stoichiometry N [10]: 2 | tetramer (% of the three species) [10]: 23%

B1: NTT1mis (Arabidopsis thaliana) (protein)
chain: AEAAAAGDGAVFGEGDSAAVVASPKIFGVEVATLKKIIPLGLMFFCILFNYTILRDTKDVLVVTAKGSSAEIIPFLKTWVNLPMAIGFMLLYTKLSNVLSKKALFYTVIVPFIIYFGAFGFVMYPLSNYIHPEALADKLLTTLGPRFMGPIAILRIWSFCLFYVMAELWGSVVVSVLFWGFANQITTVDEAKKFYPLFGLGANVALIFSGRTVKYFSNLRKNLGPGVDGWAVSLKAMMSIVVGMGLAICLLYWWVNRYVPLPTRSKNKKEKPKMGTMESLKFLVSSPYIRDLATLVVAYGISINLVEVTWKSKLKAQFPSPNEYSAFMGDFSTCTGVATFTMMLLSQYVFNKYGWGVAAKITPTVLLLTGVAFFSLILFGGPFAPLVAKLGMTPLLAAVYVGALQNIFSKSAKYSLFDPCKEMAYIPLDEDTKVKGKAAIDVVCNPLGKSGGALIQQFMILSFGSLANSTPYLGMILLVIVTAWLAAAKSLEGQFNSLRSEEELEKEMERASSVKIPVVSQDESGNGSLGESPSSSPEKSAPTNL
notes: expressed in E. coli, assayed in whole cells; with Protein mistic
Km [11]: 12.0 ± 5.2 µM | Km [12]: 13.2 ± 5.3 µM
